Earlier results on four substances are cited in PMC3472031.

Data set [1] deals with EspFU (Escherichia coli) (UniProt P0DJ88).
In data set [2] the target is SOS-E peptide (UniProt Q07889).
Data set [3] addresses SOS-A peptide (UniProt Q07889).
Data set [4] concerns the target EspFU peptide (Escherichia coli) (UniProt P0DJ88). Nature of the data set: ITC.
Data set [5] concerns the target EspFU R475 R475 (fifth 47-residue repeat) (Escherichia coli O157:H7) (UniProt P0DJ88).

For N-WASP 193-501 (from UniProt O00401), the Kd in data set [1] is 35 nM. For Grb2 (from UniProt P62993), the dissociation constant Kd in data set [2] was 3500 nM; in data set [3] it was 54000 nM. In the case of IRTKS SH3 (from UniProt Q9UHR4), the equilibrium dissociation constant (Kd) in data set [4] was 500 nM. Regarding N-WASPC 193-501 (from UniProt O00401), the Kd in data set [5] was 35 nM.
